Molecular target: FLAG-CTRwt (full-length) (human) (UniProt P30988)
Assay: proximity ligation; in situ PLA (Duolink) on fixed PC cells (PC-3CTRwt, PC-3CTR∆ESS, LNCaP) with anti-ZO-1 and anti-CTR sera; with/without 50 nM CT for 30 seconds; dots per cell counted

Sequence of UniProt P30988 (P30988 25-474): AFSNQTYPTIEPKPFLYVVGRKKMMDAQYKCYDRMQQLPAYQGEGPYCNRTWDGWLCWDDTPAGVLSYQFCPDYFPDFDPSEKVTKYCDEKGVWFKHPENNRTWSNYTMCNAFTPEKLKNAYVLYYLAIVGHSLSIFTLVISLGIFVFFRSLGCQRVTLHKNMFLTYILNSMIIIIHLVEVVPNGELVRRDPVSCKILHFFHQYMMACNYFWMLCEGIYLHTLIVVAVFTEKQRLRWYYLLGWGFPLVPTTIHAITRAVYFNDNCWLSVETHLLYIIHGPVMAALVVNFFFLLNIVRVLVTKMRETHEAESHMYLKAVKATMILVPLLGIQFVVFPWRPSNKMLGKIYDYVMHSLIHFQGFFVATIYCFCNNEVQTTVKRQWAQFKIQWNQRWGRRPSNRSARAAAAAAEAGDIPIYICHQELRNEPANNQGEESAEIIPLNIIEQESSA

Zonula Occludens-1 (ZO-1), endogenous (from UniProt Q07157 1-1748) (natural protein)
fold increase of PLA interactions with 50 nM CT (30 seconds) over no exogenous CT: 80 fold
